Target: non-covalent complex of the soluble extracellular domain of human neonatal Fc receptor (FcRn) with C-terminal His-Avi Tag and human beta-2-microglobulin, biotinylated (human) (UniProt P55899)
Experiment: FcRn affinity chromatography, Fc part after IdeS cleavage and preparative SEC

retention time: 52 min
Substance: Fc part of anti-Abeta antibody (YTE mutant)

Source: patent US20240124519A1
